Ends that are not written are not given here. Rf = not defined here
How the values were obtained:
[1] = molecular target: calmodulin (Homo sapiens, UniProt P0DP23); assay: calmodulin measurement with immobilized fluorescent-labeled α-helix peptide chip; assay type: binding; conditions: carboxyfluorescein peptide; exciting 490 nm, detection 520 nm; in the presence of calmodulin; 25° C., 5 minutes
Description: As schematically shown in FIG. 3, calmodulin was measured using a peptide chip in which peptides having α-helix structure, each of which both termini were labeled with different fluorescent labels, were immobilized on a substrate. The procedures were carried out as follows:
The sequence of the core region of the peptides, which forms α-helix structure was designed by molecular modeling using a computer (molecular modeling using Insight II/Discover, Molecular Simulation, U.S.) based on the amino acid sequence of the peptide described in a reference (K. T. O'Neil and W. F. DeGrado, Trend Biochem Sci, 15, 59-64 (1990)). As a result, the amino acid sequence Leu-Lys-Lys-Leu-Leu-Lys-Leu-Leu-Lys-Lys-Leu-Leu-Lys-Leu (SEQ ID NO:1) was employed as the amino acid sequence of the core region. […]

[2] = system: amylase; assay: amylase measurement with immobilized fluorescent-labeled β-loop peptide chip; assay type: binding; conditions: carboxyfluorescein group; exciting 490 nm, detection 520 nm; amylase 1.0 μM, Tris buffer pH7.4, 150 mM NaCl; 25° C., 5 minutes
Description: As schematically shown in FIG. 4, amylase was measured using a peptide chip in which a peptide whose one terminus was labeled with a fluorescent label, which peptide has β-loop structure, was immobilized on a substrate. The procedures were carried out as follows:
As in Example 1, as schematically shown in FIG. 4, a peptide which forms β-loop structure was designed by molecular modeling using a computer based on the amino acid sequence of the peptide described in a reference (F. J. Blanco et al., Eur J Biochem 200, 345-351 (1991), S. Ono et al, Biosci Biotechnol Biochem, 62, 1621-1623 (1998)). As a result, as the amino acid sequence of the core region, the sequence Tyr-Gln-Ser-Trp-Arg-Tyr-Ser-Gln-Ala (SEQ ID NO: 5) was employed. The peptide having this sequence to which Cys residue as an anchor for immobilization was added to one terminus, and to which Lys residue having a fluorescent group Rf (fluorescent group such as carboxyfluorescein in FIG. 4) was added to another terminus, was synthesized. […] When carboxyfluorescein group was used, fluorescence measurement was performed employing exciting wavelength of 490 nm and detection wavelength of 520 nm. By adding an amylase solution (Tris buffer pH7.4, 150 mM NaCl, amylase concentration: 1.0 μM), about ten times increase of the fluorescence intensity was measured, so that the amylase was able to be detected and quantified. […]

Substance	increase of the fluorescence intensity [1]	increase of the fluorescence intensity [2]
Lys(Rf3)-Leu-Lys-Lys-Leu-Leu-Lys-Leu-Leu-Lys-Lys-Leu-Leu-Lys-Leu-Cys-NH2 (K(carboxyfluorescein)LKKLLKLLKKLLKLC-NH2) [peptide containing carboxylfluorescein, Rf3 carboxyfluorescein group]	about ten	
Lys(Rf)-Tyr-Gln-Ser-Trp-Arg-Tyr-Ser-Gln-Ala-Cys-NH2 (K(Rf)YQSWRYSQAC-NH2; reading uncertain; also: printed as Lys(Rf)-Tyr-Gln-Ser-Trp-Arg-Tyr-Ser-Gln-Ala-Cys-NH2) [SEQ ID NO: 6, Rf fluorescent group such as carboxyfluorescein]		about ten

— patent US8148141B2, “Peptide-immobilized substrate and method for measuring target protein” (HiPep Laboratories, priority 2001, dated 2012)
